From US20170342349A1, “STABILIZED ENZYME COMPOSITIONS” (NOVOZYMES A/S, priority 2014, published 2017) come the findings set out here.

Assay [1] deals with Protease C (SEQ ID NO 6) (Lederbergia lenta (Bacillus lentus)) (UniProt P29600). Put plainly: Ki fitted from Suc-AAPF-pNA activity in Model B detergent; IF relative to SEQ ID NO 6 (the reference itself).
The target of assay [2] is TY145 (SEQ ID NO 3) variant S114V + I150L + S173P + S175P. Put plainly: Ki fitted from Suc-AAPF-pNA activity in Model B detergent; IF relative to SEQ ID NO 3 comprising S173P + S175P.
Sequence of TY145 (SEQ ID NO 3) variant S114V + I150L + S173P + S175P (chain, as listed by the source S114V I150L S173P S175P S114V I150L S173P S175P limits assumed): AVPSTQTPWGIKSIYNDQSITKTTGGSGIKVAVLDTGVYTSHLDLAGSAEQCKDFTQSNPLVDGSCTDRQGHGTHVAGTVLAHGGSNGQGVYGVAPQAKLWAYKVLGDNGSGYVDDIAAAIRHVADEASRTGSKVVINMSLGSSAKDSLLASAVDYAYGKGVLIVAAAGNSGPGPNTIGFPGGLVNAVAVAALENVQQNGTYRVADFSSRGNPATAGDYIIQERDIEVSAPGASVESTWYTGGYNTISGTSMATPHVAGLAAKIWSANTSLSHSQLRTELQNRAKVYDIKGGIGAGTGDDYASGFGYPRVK
The target in assay [3] is TY145 (SEQ ID NO 3) variant I150A + S173P + S175P + F180Y. Put plainly: Ki fitted from Suc-AAPF-pNA activity in Model B detergent; IF relative to SEQ ID NO 3 comprising S173P + S175P + F180Y.
Assay [4] deals with TY145 (SEQ ID NO 3) variant I150N + S173P + S175P + F180Y. The description is as above.
Assay [5] addresses TY145 (SEQ ID NO 3) variant I150T + S173P + S175P + F180Y. Described as above.
For assay [6], the target named is TY145 (SEQ ID NO 3) variant K146F + S173P + S175P + F180Y. The description is as above.
Assay [7] deals with TY145 (SEQ ID NO 3) variant K146N + S173P + S175P + F180Y. The assay is described as above.
Assay [8] concerns the target TY145 (SEQ ID NO 3) variant K146R + S173P + S175P + F180Y. The description is as above.
Assay [9] addresses TY145 (SEQ ID NO 3) variant K146S + S173P + S175P + F180Y. The description is as above.
Assay [10] concerns the target TY145 (SEQ ID NO 3) variant K146W + S173P + S175P + F180Y. The assay is described as above.
Assay [11] addresses TY145 (SEQ ID NO 3) variant Q70A + S173P + S175P + F180Y. The assay is described as above.
Assay [12] has as its target TY145 (SEQ ID NO 3) variant Q70F + S173P + S175P + F180Y. Described as above.
The target of assay [13] is TY145 (SEQ ID NO 3) variant Q70H + S173P + S175P + F180Y. Described as above.
Sequence of TY145 (SEQ ID NO 3) variant Q70H + S173P + S175P + F180Y (chain, as listed by the source Q70H S173P S175P F180Y Q70H S173P S175P F180Y limits assumed): as the sequence (chain, as listed by the source S114V I150L S173P S175P S114V I150L S173P S175P limits assumed) above, with Q70H, V114S, L150I, F180Y counted along it
In assay [14] the target is TY145 (SEQ ID NO 3) variant Q70Y + S173P + S175P + F180Y. The description is as above.
Sequence of TY145 (SEQ ID NO 3) variant Q70Y + S173P + S175P + F180Y (chain, as listed by the source Q70Y S173P S175P F180Y Q70Y S173P S175P F180Y limits assumed): as the sequence (chain, as listed by the source S114V I150L S173P S175P S114V I150L S173P S175P limits assumed) above, with Q70Y, V114S, L150I, F180Y counted along it
In assay [15] the target is TY145 (SEQ ID NO 3) variant S114A + S173P + S175P + F180Y. The description is as above.
The target in assay [16] is TY145 (SEQ ID NO 3) variant S114F + S173P + S175P + F180Y. The description is as above.
Assay [17] concerns the target TY145 (SEQ ID NO 3) variant S173P + S175P + F180Y + L184D. The assay is described as above.
Assay [18] deals with TY145 (SEQ ID NO 3) variant S173P + S175P + F180Y + L184F. Described as above.
Assay [19] has as its target TY145 (SEQ ID NO 3) variant S173P + S175P + F180Y + L184H. The assay is described as above.
Assay [20] concerns the target TY145 (SEQ ID NO 3) variant S173P + S175P + F180Y + L184W. Described as above.
Assay [21] has as its target TY145 (SEQ ID NO 3) variant S173P + S175P + I178F + F180Y. The assay is described as above.
Assay [22] deals with TY145 (SEQ ID NO 3) variant S173P + S175P + I178Y + F180Y. The description is as above.

Sequence of TY145 (SEQ ID NO 3) variant Q70F + S173P + S175P + F180Y (chain, as listed by the source Q70F S173P S175P F180Y Q70F S173P S175P F180Y limits assumed): as the sequence (chain, as listed by the source S114V I150L S173P S175P S114V I150L S173P S175P limits assumed) above, with Q70F, V114S, L150I, F180Y counted along it
Sequence of TY145 (SEQ ID NO 3) variant I150T + S173P + S175P + F180Y (chain, as listed by the source I150T S173P S175P F180Y I150T S173P S175P F180Y limits assumed): as the sequence (chain, as listed by the source S114V I150L S173P S175P S114V I150L S173P S175P limits assumed) above, with V114S, L150T, F180Y counted along it

Turning to “Inhibitor 1: Cbz-Gly-Ala-NHCH(CH2C6H4pOH)C(OH)(SO3Na)-H (peptide)”, the IF (binding constant improvement factor, relative Ki) in [1] was 1; in assay [2], 6.14; in [3] it was 2.52; in assay [4], 3.58; in [5], 4.15; in [6] it was 5.17. For the same substance, the IF (binding constant improvement factor, relative Ki) is 1.36 in [7]; 1.31 in assay [8]; 1.13 in [9]; 5.47 in [10]; 4.13 in [11]; 11.8 in assay [12]. Moreover, the IF (binding constant improvement factor, relative Ki) in assay [13] came to 3.78; in [14], 7.44; in [15], 3.33; in [16], 1.41; in assay [17] it was 3.28; in assay [18] it was 4.28. Moreover, the IF (binding constant improvement factor, relative Ki) in [19] is 2.5; in [20], 2.23; in [21] it was 2.34; in [22], 2.15.
